Measured values published in patent US20050255104A1.

Target: human tumor necrosis factor-α (TNFα) (human) (UniProt P01375)
Experiment: cell-based or functional assay

Sequence of human tumor necrosis factor-α (TNFα) (human) (P01375 77-233 limits assumed): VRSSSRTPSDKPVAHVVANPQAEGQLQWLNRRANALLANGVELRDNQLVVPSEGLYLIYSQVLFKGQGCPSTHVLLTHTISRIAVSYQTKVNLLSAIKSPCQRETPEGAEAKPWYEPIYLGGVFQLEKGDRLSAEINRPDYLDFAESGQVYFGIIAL

B1: chimeric mouse/human IgG1 anti-platelet mAb (7E3) (antibody, INN chains, looked up, V domains shown)
VH: EVQLQQSGTVLARPGASVKMSCEASGYTFTNYWMHWVKQRPGQGLEWIGAIYPGNSDTSYIQKFKGKAKLTAVTSTTSVYMELSSLTNEDSAVYYCTLYDGYYVFAYWGQGTLVTVSA
VL: EIVLTQSPVTLSVTPGDSVSLSCRASRDISNNLHWFQQTSHESPRLLIKYASQSMSGIPSRFSGSGSGTDFTLSINSVETEDFGMYFCQQTNSWPYTFGGGTKLEIK
modifications: full IgG1
- IL-6 secreted by FS-4 fibroblasts, 0.3 ng/ml rhTNF with 4 µg/ml antibody: 1.6 ng/mL
- IL-6 secreted by FS-4 fibroblasts, 1.5 ng/ml rhTNF with 4 µg/ml antibody: 1.96 ng/mL
- IL-6 secreted by FS-4 fibroblasts, 7.5 ng/ml rhTNF with 4 µg/ml antibody: 2.16 ng/mL
